Each block holds one molecule with its values, some of them ahead of it.
What was measured:
[1] = molecular target: human TNFR2 overexpressed on CHO-S cells (CHOS-hTNFR2) (human) (UniProt P20333); assay: flow cytometry on CHO-S cells overexpressing human TNFR2 (negative control), MFI-FL2-A; unit taken from the axis Conc log(nM); the curve is flat, so the fit is ambiguous
[2] = molecular target: TNFR2 on human K562 chronic myeloid leukemia cells and on primary human Treg cells (human) (UniProt P20333); assay: flow cytometry on human K562 CML cells (negative control), MFI(FL2); unit taken from the axis Conc log(nM); the curve stays near the baseline and the value lies beyond the highest concentration shown
[3] = molecular target: cynomolgus monkey TNFR2 overexpressed on CHO-S cells (CHOS-cTNFR2) (cynomolgus monkey); assay: flow cytometry on CHO-S cells overexpressing cynomolgus monkey TNFR2 (negative control), MFI-FL2-A; unit taken from the axis Conc log(nM); the curve stays near the baseline
[4] = molecular target: T1, human TNFR2 overexpressed on CHO-S cells (CHOS-hTNFR2) (human, UniProt P20333 23-461); assay: flow cytometry on CHO-S cells overexpressing human TNFR2 (hybridoma antibodies), MFI
T1 construct: also called hTNFR2 CHO-S; human TNFR2 molecule overexpressed on CHO-S cells
T1 sequence: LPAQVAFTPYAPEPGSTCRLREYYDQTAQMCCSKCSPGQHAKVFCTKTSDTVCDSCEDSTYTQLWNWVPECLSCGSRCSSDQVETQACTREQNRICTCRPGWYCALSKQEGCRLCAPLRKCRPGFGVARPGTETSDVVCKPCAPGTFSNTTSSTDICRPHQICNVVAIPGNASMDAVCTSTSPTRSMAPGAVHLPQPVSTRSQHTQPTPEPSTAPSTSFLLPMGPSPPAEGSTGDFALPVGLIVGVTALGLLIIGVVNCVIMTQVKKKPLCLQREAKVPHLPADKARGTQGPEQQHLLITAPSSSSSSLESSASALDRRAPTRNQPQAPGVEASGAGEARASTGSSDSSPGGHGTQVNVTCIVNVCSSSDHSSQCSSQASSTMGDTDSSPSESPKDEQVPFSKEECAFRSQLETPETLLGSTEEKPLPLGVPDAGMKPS
Description: (§1) In the study, the binding of the hybridoma antibodies (3C4, 69B1, and 72G8) of the present invention, after being diluted in a gradient, to a stable CHO-S cell strain overexpressing human TNFR2 on the surface was assayed by using a flow cytometer.
(§2) CHOS-hTNFR2 cells or CHOS-cTNFR2 cells were counted and diluted to 2×10⁶ cells/mL, and added to a U-bottom 96-well plate at 100 μL/well. The mixture was centrifuged at 300 g for 5 min, and the cell medium was removed. The dilutions of the samples (the hybridoma antibodies 3C4, 69B1, and 72G8 and the positive control antibody OPI) (the antibodies were subjected to a two-fold serial dilution in PBS from the maximum antibody concentration of 300 nM) were added to the U-plate, and the cells were resuspended at 100 μL/well and left to stand on ice for 30 min. The suspension was centrifuged at 400 g for 5 min, and the supernatant was removed. The cells were washed twice with PBS. The mixture was centrifuged at 300 g for 5 min, and PBS was removed. […] The mixture was centrifuged at 400 g for 5 min, and the supernatant was removed. The cells were washed 3 times with PBS. The cells were resuspended in 200 μL of 1×PBS and assayed by FACS.

[5] = molecular target: T2, cynomolgus monkey TNFR2 overexpressed on CHO-S cells (CHOS-cTNFR2) (cynomolgus monkey, UniProt P20333 23-461 (human entry)); assay: flow cytometry on CHO-S cells overexpressing cynomolgus monkey TNFR2 (hybridoma antibodies), MFI
T2 construct: also called cTNFR2 CHO-S
T2 chain: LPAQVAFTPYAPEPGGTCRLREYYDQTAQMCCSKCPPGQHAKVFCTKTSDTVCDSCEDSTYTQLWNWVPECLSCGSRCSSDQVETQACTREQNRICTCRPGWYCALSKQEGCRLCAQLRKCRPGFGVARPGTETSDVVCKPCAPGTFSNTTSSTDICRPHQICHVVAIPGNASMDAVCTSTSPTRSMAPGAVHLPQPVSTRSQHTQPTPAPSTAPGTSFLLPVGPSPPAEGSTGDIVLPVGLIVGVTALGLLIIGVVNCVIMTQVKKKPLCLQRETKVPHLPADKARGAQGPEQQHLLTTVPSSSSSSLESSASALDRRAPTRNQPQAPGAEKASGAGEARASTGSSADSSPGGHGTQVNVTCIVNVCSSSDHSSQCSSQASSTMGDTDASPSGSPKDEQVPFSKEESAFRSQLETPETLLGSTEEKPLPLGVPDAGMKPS
Description: as §1, §2

[6] = molecular target: T3, hTNFR2 protein (coated on the microplate in the blocking ELISA) (human, UniProt P20333 23-257); assay: blocking ELISA: hTNFR2 coated on the plate, binding of biotinylated TNFα blocked by the antibody, Avidin-HRP
T3 construct: The construct coated in the ELISA is not described (it may or may not be the immunogen, Sino biological 10417-H03H)
T3 sequence (looked up): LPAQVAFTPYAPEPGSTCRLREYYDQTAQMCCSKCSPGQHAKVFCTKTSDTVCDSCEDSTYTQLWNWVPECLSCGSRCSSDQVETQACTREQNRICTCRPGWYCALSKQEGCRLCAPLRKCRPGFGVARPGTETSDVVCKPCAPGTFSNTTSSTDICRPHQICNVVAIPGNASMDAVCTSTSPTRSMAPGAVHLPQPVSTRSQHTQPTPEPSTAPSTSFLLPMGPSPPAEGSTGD
Description: The ability of the hybridoma antibodies 3C4, 69B1, and 72G8 and the control antibody OPI to block the binding of human TNFα to hTNFR2 was assayed by ELISA.
The hTNFR2 protein was resuspended and dissolved to a concentration of 2 μg/mL with PBS, and a microplate was coated with the protein and incubated overnight. The plate was blocked with 5% BSA for 1 h, and a biotinylated antigen (Recombinant Biotinylated TNFα protein (ACRO)) was diluted to 3 μg/mL and added to the plate at 20 μL/well. The antibodies prepared as described above (3C4, 69B1, and 72G8) were each diluted in a gradient starting from the maximum concentration of 300 nM for a total of 8 or 12 dilution gradients. The diluted antibodies were added at 200 μL/well and incubated in PBS on ice for 30 min. The antigen-antibody mixture was incubated in a microplate for 90 min and washed three times with PBS, and the supernatant was discarded. 100 μL of Avidin-HRP (Invitrogen) diluted at a 1:5000 ratio was added to each well, incubated at room temperature for 30 min, and washed six times with PBS. A TMB chromogenic solution (solarbio) was added to the plate at 100 μL/well for color development for 1 min, and the reaction was stopped by adding a stop buffer (solarbio) at 100 μL/well. The plate was read on a microplate reader at OD₄₅₀ and OD₆₂₀.

[7] = molecular target: T1, human TNFR2 overexpressed on CHO-S …; assay: flow cytometry on CHO-S cells overexpressing human TNFR2 (chimeric antibodies), MFI-FL2-A; unit taken from the axis Conc log(nM); the curve is still rising to about 29000 at log(nM) 2.5
Description: (§3) In the study, the binding of the chimeric antibodies of the present invention, after being diluted in a gradient, to a stable CHO-S cell strain overexpressing human TNFR2 on the surface was assayed by using a flow cytometer. cDNAs encoding human TNFR2 (SEQ ID NO: 60) and cynomolgus monkey TNFR2 (SEQ ID NO: 61) were cloned into pCH01.0 vectors (Invitrogen), which were transfected into CHO-S cells (Invitrogen) to produce CHO-S cells overexpressing human TNFR2 (CHOS-hTNFR2) and CHO-S cells overexpressing cynomolgus monkey TNFR2 (CHOS-cTNFR2).
(§4) CHOS-hTNFR2 cells or CHOS-cTNFR2 cells were counted and diluted to 2×10⁶ cells/mL, and added to a U-bottom 96-well plate at 100 μL/well. The mixture was centrifuged at 300 g for 5 min, and the cell medium was removed. The dilutions of the samples (the chimeric antibodies 3C4, 69B1, and 72G8 and the positive control antibody OPI) (the antibodies were subjected to a three-fold serial dilution in PBS from the maximum antibody concentration of 300 nM) were added to the U-plate, and the cells were resuspended at 100 μL/well and left to stand on ice for 30 min. The suspension was centrifuged at 400 g for 5 min, and the supernatant was removed. The cells were washed twice with PBS. The mixture was centrifuged at 300 g for 5 min, and PBS was removed. […]

[8] = molecular target: T2, cynomolgus monkey TNFR2 overexpressed …; assay: flow cytometry on CHO-S cells overexpressing cynomolgus monkey TNFR2 (chimeric antibodies), MFI-FL2-A; unit taken from the axis Conc log(nM); the curve is still rising at log(nM) 2.5, no upper plateau
Description: as §3, §4

[9] = molecular target: T4, rh-TNFR2-His (recombinant human TNFR2, His tag) (human, UniProt P20333 23-257); assay: BLI (ForteBio), antibody on sensor, 100 nM rh-TNFR2-His in solution, 1:1 model
T4 construct: Soluble antigen of the ForteBio assay; not shown: His tag
T4 sequence (looked up): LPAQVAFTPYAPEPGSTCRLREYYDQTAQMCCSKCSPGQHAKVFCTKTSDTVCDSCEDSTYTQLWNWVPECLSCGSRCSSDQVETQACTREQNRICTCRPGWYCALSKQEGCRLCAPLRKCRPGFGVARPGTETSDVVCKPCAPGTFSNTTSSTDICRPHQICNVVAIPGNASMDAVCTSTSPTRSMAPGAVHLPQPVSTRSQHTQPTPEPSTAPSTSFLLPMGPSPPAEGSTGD
Description: (§5) In the present invention, the equilibrium dissociation constant (KD) for the binding of the 3 exemplary chimeric antibodies of the present invention described above to human TNFR2 (hTNFR2), cynomolgus monkey TNFR2 (cTNFR2), murine TNFR2(mTNFR2), and human TNFR1(hTNFR1) was determined by biological optical interferometry (ForteBio). For comparison, the equilibrium dissociation constant (KD) of a positive control antibody OPI (humanized antibody SBT-002e in WO 2017083525, VH sequence of SEQ ID NO: 58, VL sequence of SEQ ID NO: 59) was determined.
(§6) The ForteBio affinity assay was performed according to the prior art (Estep, P, et al., High throughput solution based measurement of antibody-antigen affinity and epitope binning. MAbs, 2013.5(2): p. 270-278). Briefly, a sensor was equilibrated offline in an assay buffer for 30 min, and was equilibrated online for 60 s to establish a baseline. The purified antibodies obtained as described above were loaded online onto an AHQ sensor (ForteBio) for the ForteBio affinity assay. The sensor with the loaded antibodies was then exposed to each of 100 nM hTNFR2, cTNFR2, mTNFR2, and hTNFR1 antigens for 5 min before transferring the sensor to an assay buffer for 5 min of dissociation for dissociation rate measurement. The kinetic analysis was performed using a 1:1 binding model.

[10] = molecular target: T5, CYNO-TNFR2-His (cynomolgus monkey TNFR2, His tag) (cynomolgus monkey, UniProt A0A2K5VET2 132-366); assay: BLI (ForteBio), antibody on sensor, 100 nM CYNO-TNFR2-His in solution, 1:1 model
T5 construct: Soluble antigen of the ForteBio assay; also called cTNFR2; not shown: His tag
T5 sequence: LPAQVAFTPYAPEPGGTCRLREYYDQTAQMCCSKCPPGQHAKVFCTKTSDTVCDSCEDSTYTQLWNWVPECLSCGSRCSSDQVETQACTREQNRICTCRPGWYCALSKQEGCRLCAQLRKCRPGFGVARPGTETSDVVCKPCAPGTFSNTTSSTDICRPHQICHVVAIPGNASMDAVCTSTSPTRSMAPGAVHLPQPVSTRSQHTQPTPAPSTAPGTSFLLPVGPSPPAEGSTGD
Description: as §5, §6

- EC50 [1]: 13500 µM
- EC50 [2]: 0.0223 µM
- EC50 [3]: 0.00112 µM
Molecule: IgG (antibody)

- EC50 (read off the curve) [4]: ~0.001 µM
- EC50 (read off the curve) [5]: ~0.001 µM
B1: hybridoma antibody 69B1 (antibody, V domains shown)
VH: QIQLVQSGPELKKPGETVKISCKASGYTFTDYSMNWVKQAPGKGLKWMGWLNTETGEPIYADDFKGRFVFSLETSASTAYLEINNLNDEDTATYFCAREAIYYGTSYVLDYWGQGTSVTVSS
VL: DIVLTQSPASLAVSLGQRATISCRASESVEYYGTNFMQWYQQKPGQPPKLLIYSASNVESGVPARFSGSGSGTDFSLNIHPVEEDDIAVYFCQQSRKDPSTFGEGTNLEIK
notes: Murine antibody from the hybridoma (detected with anti-mouse IgG)

- EC50 (read off the curve) [4]: ~0.002 µM
- IC50 (read off the curve) [6]: ~0.005 µM
B2: hybridoma antibody 3C4 (antibody, V domains shown)
VH: QVQLQQSGPELVKPGASVTISCKASDYSFTNYYIHWVKQRPGQGLEWIGWIYPGNVITKYHEKFKGKAILTADTSSTTAYMQLNSLTSEDSAVYFCARSRATGYFDYWGQGTTLTVSS
VL: DIQMTQTTSSLSASLGDRVTISCRASQDIRNYLNWFQQKPDGTIKLLIYYTSRLHSGVPSRFSGSGSGTDYSLTISNLEQEDMATYFCQQFNTLPWTFGGGTKLEIK
notes: as for B1

- EC50 [7]: 0.0284 µM
- EC50 [8]: 0.122 µM
- Kd [9]: 0.00451 µM
- koff [9]: 0.00515 s⁻¹
- kon [9]: 1.14e+06 M⁻¹ s⁻¹
- Kd [10]: 0.00311 µM
- koff [10]: 0.00509 s⁻¹
- kon [10]: 1.64e+06 M⁻¹ s⁻¹
B3: chimeric antibody 72G8 (antibody, human IgG1, kappa, V domains shown)
VH: EVQLQQSGAELARPGASVMLSCKASGYTFTSYWMQWLKQRPGQGLEWIGAIYPGDGDTRYTQKFKGKATLTADKSSSTAYMQLSSLASEDSAVYYCVRDDGLYYAMDYWGQGTSVTVSS
VL: QIVLTQSPTIMSASLGERVTMTCTASSSVSSSYLHWYQQKPGSSPKLWIYSTSNLASGVPARFSGSGSGTSYSLTISSMEAEDAATYYCHQYHRSPPTFGGGTKLEIKR

From patent US20240026019A1 (Innovent, published 2024)
